Reference: patent US9957535B2, “Methods, reagents and cells for biosynthesizing compounds” (INVISTA North America S.á r.l., priority 2014, dated 2018)

B1: SEQ ID NO 7: Segniliparus rotundus carboxylate reductase (Genbank Accession No. ADG98140.1), N-terminal HIS tagged (protein, listed as Segniliparus rotundus)
chain: MTQSHTQGPQASAAHSRLARRAAELLATDPQAAATLPDPEVVRQATRPGLRLAERVDAILSGYADRPALGQRSFQTVKDPITGRSSVELLPTFDTITYRELRERATAIASDLAHHPQAPAKPGDFLASIGFISVDYVAIDIAGVFAGLTAVPLQTGATLATLTAITAETAPTLFAASIEHLPTAVDAVLATPSVRRLLVFDYRAGSDEDREAVEAAKRKIADAGSSVLVDVLDEVIARGKSAPKAPLPPATDAGDDSLSLLIYTSGSTGTPKGAMYPERNVAHFWGGVWAAAFDEDAAPPVPAINITFLPLSHVASRLSLMPTLARGGLMHFVAKSDLSTLFEDLKLARPTNLFLVPRVVEMLYQHYQSELDRRGVQDGTREAEAVKDDLRTGLLGGRILTAGFGSAPLSAELAGFIESLLQIHLVDGYGSTEAGPVWRDGYLVKPPVTDYKLIDVPELGYFSTDSPHPRGELAIKTQTILPGYYKRPETTAEVFDEDGFYLTGDVVAQIGPEQFAYVDRRKNVLKLSQGEFVTLAKLEAAYSSSPLVRQLFVYGSSERSYLLAVIVPTPDALKKFGVGEAAKAALGESLQKIARDEGLQSYEVPRDFIIETDPFTVENGLLSDARKSLRPKLKEHYGERLEAMYKELADGQANELRDIRRGVQQRPTLETVRRAAAAMLGASAAEIKPDAHFTDLGGDSLSALTFSNFLHDLFEVDVPVGVIVSAANTLGSVAEHIDAQLAGGRARPTFATVHGKGSTTIKASDLTLDKFIDEQTLEAAKHLPKPADPPRTVLLTGANGWLGRFLALEWLERLAPAGGKLITIVRGKDAAQAKARLDAAYESGDPKLAGHYQDLAATTLEVLAGDFSEPRLGLDEATWNRLADEVDFISHPGALVNHVLPYNQLFGPNVAGVAEIIKLAITTRIKPVTYLSTVAVAAGVEPSALDEDGDIRTVSAERSVDEGYANGYGNSKWGGEVLLREAHDRTGLPVRVFRSDMILAHQKYTGQVNATDQFTRLVQSLLATGLAPKSFYELDAQGNRQRAHYDGIPVDFTAESITTLGGDGLEGYRSYNVFNPHRDGVGLDEFVDWLIEAGHPITRIDDYDQWLSRFETSLRGLPESKRQASVLPLLHAFARPGPAVDGSPFRNTVFRTDVQKAKIGAEHDIPHLGKALVLKYADDIKQLGLL
modifications: N-terminal His tag
B2: SEQ ID NO 10: Pseudomonas syringae ω-transaminase (Genbank Accession No. AAY39893.1), N-terminal HIS tagged; b286 says Rhodobacter sphaeroides (protein, listed as Pseudomonas syringae)
chain: MSANNPQTLEWQALSSEHHLAPFSDYKQLKEKGPRIITRAEGVYLWDSEGNKILDGMSGLWCVAIGYGREELADAASKQMRELPYYNLFFQTAHPPVLELAKAISDIAPEGMNHVFFTGSGSEGNDTMLRMVRHYWALKGQPNKKTIISRVNGYHGSTVAGASLGGMTYMHEQGDLPIPGVVHIPQPYWFGEGGDMTPDEFGIWAAEQLEKKILELGVENVGAFIAEPIQGAGGVIVPPDSYWPKIKEILSRYDILFAADEVICGFGRTSEWFGSDFYGLRPDMMTIAKGLTSGYVPMGGLIVRDEIVAVLNEGGDFNHGFTYSGHPVAAAVALENIRILREEKIVERVRSETAPYLQKRLRELSDHPLVGEVRGVGLLGAIELVKDKTTRERYTDKGAGMICRTFCFDNGLIMRAVGDTMIIAPPLVISFAQIDELVEKARTCLDLTLAVLQG
modifications: N-terminal His tag
notes: b286 says Rhodobacter sphaeroides
B3: SEQ ID NO 8: Chromobacterium violaceum ω-transaminase (Genbank Accession No. AAQ59697.1), N-terminal HIS tagged (protein, listed as Chromobacterium violaceum)
chain: MQKQRTTSQWRELDAAHHLHPFTDTASLNQAGARVMTRGEGVYLWDSEGNKIIDGMAGLWCVNVGYGRKDFAEAARRQMEELPFYNTFFKTTHPAVVELSSLLAEVTPAGFDRVFYTNSGSESVDTMIRMVRRYWDVQGKPEKKTLIGRWNGYHGSTIGGASLGGMKYMHEQGDLPIPGMAHIEQPWWYKHGKDMTPDEFGVVAARWLEEKILEIGADKVAAFVGEPIQGAGGVIVPPATYWPEIERICRKYDVLLVADEVICGFGRTGEWFGHQHFGFQPDLFTAAKGLSSGYLPIGAVFVGKRVAEGLIAGGDFNHGFTYSGHPVCAAVAHANVAALRDEGIVQRVKDDIGPYMQKRWRETFSRFEHVDDVRGVGMVQAFTLVKNKAKRELFPDFGEIGTLCRDIFFRNNLIMRACGDHIVSAPPLVMTRAEVDEMLAVAERCLEEFEQTLKARGLA
modifications: N-terminal His tag

Key:
Type in all cases: biochemical
[1] = carboxylate reductase enzyme activity assay (glutarate semialdehyde to pentanedial), NADPH consumption at 340 nm; conditions: purified enzyme enhanced by gene product of sfp, 2 mM glutarate semialdehyde, 1 mM ATP, 1 mM NADPH, pH 7.5, room temperature, 20 min, against empty vector control (FIG. 16)
Description: The N-terminal His-tagged carboxylate reductase of SEQ ID NO 7 (see Example 3 and FIG. 10) was assayed using glutarate semialdehyde as substrate. The enzyme activity assay was performed in triplicate in a buffer composed of a final concentration of 50 mM HEPES buffer (pH=7.5), 2 mM glutarate semialdehyde, 10 mM MgCl2, 1 mM ATP and 1 mM NADPH. The enzyme activity assay reaction was initiated by adding purified carboxylate reductase and phosphopantetheine transferase or the empty vector control to the assay buffer containing the glutarate semialdehyde and then incubated at room temperature for 20 min. The consumption of NADPH was monitored by absorbance at 340 nm.

[2] = ω-transaminase enzyme activity assay, forward direction (glutarate semialdehyde to 5-aminopentanoate), pyruvate formation by RP-HPLC; conditions: for ω-transaminase acceptance of glutarate semialdehyde, synthesizing 5-aminopentanoate, concluded from reversibility: concluded from confirmed reversibility of the ω-transaminase activity
Description: (§1) A nucleotide sequence encoding an N-terminal His-tag was added to the genes from Chromobacterium violaceum and Rhodobacter sphaeroides encoding the ω-transaminases of SEQ ID NOs: 8 and 10 respectively (see FIG. 10) such that N-terminal HIS tagged ω-transaminases could be produced. Each of the resulting modified genes was cloned into a pET21a expression vector under control of the T7 promoter and each expression vector was transformed into a BL21[DE3] E. coli host. The resulting recombinant E. coli strains were cultivated at 37° C. in a 250 mL shake flask culture containing 50 mL LB media and antibiotic selection pressure, with shaking at 230 rpm. Each culture was induced overnight at 16° C. using 1 mM IPTG.
(§2) The pellet from each induced shake flask culture was harvested via centrifugation. Each pellet was resuspended and lysed via sonication. The cell debris was separated from the supernatant via centrifugation and the cell free extract was used immediately in enzyme activity assays.
Enzyme activity in the forward direction (i.e., glutarate semialdehyde to 5-aminopentanoate) was confirmed for the transaminase of SEQ ID NO 10. Enzyme activity assays were performed in a buffer composed of a final concentration of 50 mM HEPES buffer (pH=7.5), 10 mM glutarate semialdehyde, 10 mM L-alanine and 100 μM pyridoxyl 5′ phosphate. Each enzyme activity assay reaction was initiated by adding a cell free extract of the ω-transaminase gene product or the empty vector control to the assay buffer containing the glutarate semialdehyde and incubated at 25° C. for 4 h, with shaking at 250 rpm. The formation of pyruvate was quantified via RP-HPLC.

[3] = ω-transaminase enzyme activity assay (N5-acetyl-1,5-diaminopentane to N5-acetyl-5-aminopentanal), L-alanine formation by RP-HPLC; conditions: for ω-transaminase activity converting N5-acetyl-1,5-diaminopentane to N5-acetyl-5-aminopentanal (substrate acceptance): cell free extract, 10 mM N5-acetyl-1,5-diaminopentane, 10 mM pyruvate, pH 7.5, 25° C., 4 h, against empty vector control (FIG. 15); for ω-transaminase acceptance of N5-acetyl-5-aminopentanal forming N5-acetyl-1,5-diaminopentane, concluded from reversibility: concluded from reversibility of the ω-transaminase activity (Example 1)
Description: The activity of the N-terminal His-tagged ω-transaminases of SEQ ID NOs: 8, 10-13 (see Example 3, and FIG. 10) for converting N5-acetyl-1,5-diaminopentane to N5-acetyl-5-aminopentanal was assayed using a buffer composed of a final concentration of 50 mM HEPES buffer (pH=7.5), 10 mM N5-acetyl-1,5-diaminopentane, 10 mM pyruvate and 100 μM pyridoxyl 5′ phosphate. Each enzyme activity assay reaction was initiated by adding a cell free extract of the ω-transaminase or the empty vector control to the assay buffer containing the N5-acetyl-1,5-diaminopentane then incubated at 25° C. for 4 h, with shaking at 250 rpm. The formation of L-alanine was quantified via RP-HPLC.

[4] = ω-transaminase enzyme activity assay, reverse direction (5-aminopentanoate to glutarate semialdehyde), L-alanine formation from pyruvate by RP-HPLC; conditions: cell free extract, 10 mM 5-aminopentanoate, 10 mM pyruvate, pH 7.5, 25° C., 4 h, against empty vector control (FIG. 18)
Description: as §1, §2
Enzyme activity assays in the reverse direction (i.e., 5-aminopentanoate to glutarate semialdehyde) were performed in a buffer composed of a final concentration of 50 mM HEPES buffer (pH=7.5), 10 mM 5-aminopentanoate, 10 mM pyruvate and 100 μM pyridoxyl 5′ phosphate. […] The formation of L-alanine from pyruvate was quantified via RP-HPLC.

| Molecule | carboxylate reductase activity converting glutarate semialdehyde to pentanedial (substrate acceptance) [1] | ω-transaminase activity converting glutarate semialdehyde to 5-aminopentanoate (substrate acceptance) ([2]; cell free extract, 10 mM glutarate semialdehyde, 10 mM L-alanine, pH 7.5, 25° C., 4 h, against empty vector control (FIG. 19)) | ω-transaminase acceptance of glutarate semialdehyde, synthesizing 5-aminopentanoate, concluded from reversibility [2] | ω-transaminase activity converting N5-acetyl-1,5-diaminopentane to N5-acetyl-5-aminopentanal (substrate acceptance) [3] | ω-transaminase acceptance of N5-acetyl-5-aminopentanal forming N5-acetyl-1,5-diaminopentane, concluded from reversibility [3] | ω-transaminase activity converting 5-aminopentanoate to glutarate semialdehyde (substrate acceptance) [4] |
| --- | --- | --- | --- | --- | --- | --- |
| B1 | accepted glutarate semialdehyde as substrate | – | – | – | – | – |
| B2 | – | accepted glutarate semialdehyde as substrate | accepted glutarate semialdehyde as substrate and synthesized 5-aminopentanoate | accepted N5-acetyl-1,5-diaminopentane as substrate | accept N5-acetyl-5-aminopentanal as substrate forming N5-acetyl-1,5-diaminopentane | – |
| B3 | – | – | accepted glutarate semialdehyde as substrate and synthesized 5-aminopentanoate | accepted N5-acetyl-1,5-diaminopentane as substrate | accept N5-acetyl-5-aminopentanal as substrate forming N5-acetyl-1,5-diaminopentane | accepted 5-aminopentanote as substrate |
